Experimental data reported in paper PMC5687670, “hYSK1 promotes cancer cell proliferation and migration through negative regulation of p16^INK4a under hypoxic conditions” (Oncotarget, 2017).

Molecular target: T1, hYSK1 on the ProtoArray Human Protein Microarray (human, UniProt O00506 1-426)
T1 construct: hYSK1, human Ste20 family serine/threonine protein kinase; one of 1,800 recombinant human proteins on the array; also called human analog of YSK1; source: bought: ProtoArray Human Protein Microarray (v.1.0), recombinant human protein printed on nitrocellulose slide
Test: peptide or protein array; ProtoArray Human Protein Microarray (v.1.0), 1,800 recombinant human proteins on nitrocellulose slides, blocked and probed with biotin-labeled p16^INK4a; detected with streptavidin-Alexa Fluor 647
Settings: both partners purified

T1 sequence (O00506 whole entry): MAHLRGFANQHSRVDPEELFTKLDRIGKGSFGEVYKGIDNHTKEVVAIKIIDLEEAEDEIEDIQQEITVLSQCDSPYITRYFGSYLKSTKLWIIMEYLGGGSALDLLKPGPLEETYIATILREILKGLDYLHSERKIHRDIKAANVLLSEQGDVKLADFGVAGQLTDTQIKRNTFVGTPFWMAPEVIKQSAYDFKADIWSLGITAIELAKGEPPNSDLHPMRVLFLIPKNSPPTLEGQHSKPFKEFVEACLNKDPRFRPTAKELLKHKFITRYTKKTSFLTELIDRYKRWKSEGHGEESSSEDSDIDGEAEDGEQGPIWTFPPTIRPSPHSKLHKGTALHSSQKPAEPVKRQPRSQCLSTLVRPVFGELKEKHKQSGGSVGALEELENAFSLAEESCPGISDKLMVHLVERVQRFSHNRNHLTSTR

binding result: binds
B1: biotin-labeled p16^INK4a (natural protein, UniProt P42771 1-156, looked up)
chain: MEPAAGSSMEPSADWLATAAARGRVEEVRALLEAGALPNAPNSYGRRPIQVMMMGSARVAELLLLHGAEPNCADPATLTRPVHDAAREGFLDTLVVLHRAGARLDVRDAWGRLPVDLAEELGHRDVARYLRAAAGGTRGSNHARIDAAEGPSDIPD
modifications: biotin (biotinylated; site not stated)
notes: probe for the protein microarray
